In patent US20080227735, “Aptamers Selected From Live Tumor Cells and the Use Thereof” (COMMISSARIAT A L'ENERGIE ATOMIQUE, published 2008):

Key:
[1] = biological target: T1, Ret receptor tyrosine kinase C634Y (RetC634Y) on PC12 MEN 2A cells (Homo sapiens, UniProt P07949 P07949:29-1114, C634Y); test: whole PC12 MEN 2A cells, RPMI, 37C, 10 min, polyinosine competitor; target on cell not directly proven; 102 ± 58 x1000 targets/cell; settings: tags: stably transfected in rat PC12 cells; constitutive homodimer; chain copies: 2 (inferred); label: 5'-32P; stem-loop with internal loops (predicted)
T1 sequence (P07949 29-1114 C634Y, one chain of several): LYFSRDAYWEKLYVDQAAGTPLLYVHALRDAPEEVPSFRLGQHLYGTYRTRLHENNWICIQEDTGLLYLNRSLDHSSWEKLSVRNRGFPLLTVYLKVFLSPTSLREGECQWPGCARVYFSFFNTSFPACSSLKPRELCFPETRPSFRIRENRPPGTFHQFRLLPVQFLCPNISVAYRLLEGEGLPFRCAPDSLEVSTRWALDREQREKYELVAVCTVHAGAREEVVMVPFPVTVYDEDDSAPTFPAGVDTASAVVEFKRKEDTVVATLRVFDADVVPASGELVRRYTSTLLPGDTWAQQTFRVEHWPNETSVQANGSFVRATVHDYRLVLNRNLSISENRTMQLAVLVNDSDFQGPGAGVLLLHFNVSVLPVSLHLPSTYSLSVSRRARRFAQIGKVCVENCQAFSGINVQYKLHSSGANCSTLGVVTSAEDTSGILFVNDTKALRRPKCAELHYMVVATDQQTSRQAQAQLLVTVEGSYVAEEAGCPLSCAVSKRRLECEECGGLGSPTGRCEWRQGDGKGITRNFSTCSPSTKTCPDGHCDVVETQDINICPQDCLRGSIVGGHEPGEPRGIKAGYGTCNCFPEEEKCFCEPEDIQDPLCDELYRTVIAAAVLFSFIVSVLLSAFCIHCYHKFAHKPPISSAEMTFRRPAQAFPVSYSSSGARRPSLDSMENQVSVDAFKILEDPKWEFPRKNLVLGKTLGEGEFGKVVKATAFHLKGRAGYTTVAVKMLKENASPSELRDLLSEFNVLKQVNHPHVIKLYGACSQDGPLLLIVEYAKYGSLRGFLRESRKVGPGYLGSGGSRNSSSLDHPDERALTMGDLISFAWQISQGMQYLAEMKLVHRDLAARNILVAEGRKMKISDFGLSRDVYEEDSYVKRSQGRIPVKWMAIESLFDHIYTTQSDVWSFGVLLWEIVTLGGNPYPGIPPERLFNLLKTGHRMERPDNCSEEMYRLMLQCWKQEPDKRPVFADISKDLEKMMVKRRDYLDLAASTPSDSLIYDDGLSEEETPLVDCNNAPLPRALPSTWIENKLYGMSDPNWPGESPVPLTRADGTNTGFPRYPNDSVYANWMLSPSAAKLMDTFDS
Description: (§1) The binding of the various aptamers (or of the initial pool, as control) to the PC12 MEN 2A cells is carried out in 24-well plates (experiments carried out in triplicate), with 5′-³²P-labeled RNA. 10⁵ cells per well are incubated with various concentrations of aptamers in 200 μl of RPMI for 10 min at 37° C. in the presence of 100 μg/ml of polyinosine, as non-specific competitor. After several washes, the bound sequences are recovered in 350 μl of 0.6% SDS and the amount of radioactivity recovered is related to the number of cells by measuring the protein content in each well.

[2] = biological target: T1, Ret receptor tyrosine kinase C634Y …; test: whole PC12 MEN 2A cells, RPMI, 37C, 10 min, polyinosine; 110 ± 47 x1000 targets/cell; no binding to parental PC12, NBTII or HeLa cells lacking Ret; settings: tags: stably transfected in rat PC12 cells; constitutive homodimer; chain copies: 2 (inferred); stem-loop with internal loops (predicted)
Description: as §1

[3] = biological target: T1, Ret receptor tyrosine kinase C634Y …; test: whole PC12 MEN 2A cells, RPMI, 37C; 102 ± 25 x1000 targets/cell; competes with D4 (p188); settings: tags: stably transfected in rat PC12 cells; constitutive homodimer; chain copies: 2 (inferred); label: 5'-32P
Description: as §1

B1: D24 (ssRNA)
RNA: GGGAGACAAGAAUAAACGCUCAAGCGGUAUGUAGGGAAUAGCACUUUUUUUGCGUAUACCUACACCGCAGCGAACGACAGGAGGCUCACAACAGGA
modifications: 2'-F pyrimidines (all C and U)
Binder B1 has a Kd [1] of 32 nM.

B2: D4 (ssRNA)
RNA: GGGAGACAAGAAUAAACGCUCAAGCGCGGGAAUAGUAUGGAAGGAUACGUAUACCGUGCAAUCCAGGGCAACGAACGACAGGAGGCUCACAACAGGA
modifications: 2'-F pyrimidines (all C and U)
B2 gave a Kd [2] of 35 nM.

B3: D12 (ssRNA)
RNA: GGGAGACAAGAAUAAACGCUCAAGGGCUUCAUAAGCUACACCGGCCAACGCAGAAAUGCCUUAAGCCCGAGUUAACGACAGGAGGCUCACAACAGGA
modifications: 2'-F pyrimidines (all C and U)
Work on B3 yielded a Kd [3] of 67 nM.
